The values below come from publication doi:10.1101/2024.11.07.622398.

The target of experiment [1] is bovine UBA7 (bovine).
For experiment [2], the target named is bovine UBA7 (bovine). The experiment is described as follows: SEC-MALS.
Experiment [3] concerns the target His-GST-tagged bovine UBA7(C597A) (bovine). In words: BLI.
Experiment [4] concerns the target His-GST-tagged UBA7(U1) chimera (bovine | human) (UniProt P22314). The experiment is described as follows: BLI.
Experiment [5] concerns the target His-GST-tagged bovine UBA7(eCCL) (bovine). In words: BLI.

His-GST-tagged UBA7(U1) chimera (bovine | human), sequence (P22314 whole entry, change not shown): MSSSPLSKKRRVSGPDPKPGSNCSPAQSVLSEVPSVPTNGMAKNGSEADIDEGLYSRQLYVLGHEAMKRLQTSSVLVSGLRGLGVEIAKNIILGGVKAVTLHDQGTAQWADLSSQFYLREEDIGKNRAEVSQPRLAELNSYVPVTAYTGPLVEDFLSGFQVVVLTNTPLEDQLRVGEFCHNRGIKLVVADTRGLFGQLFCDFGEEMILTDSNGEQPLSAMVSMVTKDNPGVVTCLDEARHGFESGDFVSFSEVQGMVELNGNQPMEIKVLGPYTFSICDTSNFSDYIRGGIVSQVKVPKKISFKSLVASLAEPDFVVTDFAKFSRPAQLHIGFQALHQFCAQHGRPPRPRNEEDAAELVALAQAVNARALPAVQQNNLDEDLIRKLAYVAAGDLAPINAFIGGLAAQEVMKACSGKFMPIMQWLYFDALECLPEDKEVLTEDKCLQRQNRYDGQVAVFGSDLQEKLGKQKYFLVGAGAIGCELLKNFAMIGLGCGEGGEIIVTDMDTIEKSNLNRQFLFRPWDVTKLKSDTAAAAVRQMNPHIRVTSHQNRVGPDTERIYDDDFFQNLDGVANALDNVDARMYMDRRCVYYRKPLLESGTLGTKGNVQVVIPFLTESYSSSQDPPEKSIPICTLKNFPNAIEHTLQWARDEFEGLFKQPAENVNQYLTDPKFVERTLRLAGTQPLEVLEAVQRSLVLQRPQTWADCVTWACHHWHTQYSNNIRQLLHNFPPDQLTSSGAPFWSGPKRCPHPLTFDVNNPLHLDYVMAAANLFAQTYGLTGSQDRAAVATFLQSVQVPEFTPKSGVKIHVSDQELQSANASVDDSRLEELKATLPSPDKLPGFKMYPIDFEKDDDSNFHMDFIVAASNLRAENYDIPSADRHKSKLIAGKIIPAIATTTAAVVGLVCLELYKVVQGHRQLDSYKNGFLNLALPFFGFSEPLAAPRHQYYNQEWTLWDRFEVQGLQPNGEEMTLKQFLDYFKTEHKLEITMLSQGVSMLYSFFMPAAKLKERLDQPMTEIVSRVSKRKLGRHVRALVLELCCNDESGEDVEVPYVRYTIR

As for “bovine UBE2L6 (from UniProt A5PJC4 1-153) (enzyme)”, in the experiment with bovine UBA7 (bovine) [1], the KM of disulfide complex formation (UBA7 titrated with UBE2L6, SDS-PAGE kinetics) came to 1.3 µM. In the experiment with bovine UBA7 (bovine) [2], the stoichiometry N is 1. The Kd in experiment [3] came to 1.2 µM.

Take “bovine UBE2L6(C86A) (from UniProt A5PJC4 1-153) (enzyme)”: the Kd in experiment [4] stood at 48 µM; in experiment [5], 4 µM.
